{
  "source": "patent US9023351",
  "data": [
    {"target": "human mesothelin (human, UniProt Q13421)", "sequence (Q13421 other isoform, or with tags, fused parts or gaps)": "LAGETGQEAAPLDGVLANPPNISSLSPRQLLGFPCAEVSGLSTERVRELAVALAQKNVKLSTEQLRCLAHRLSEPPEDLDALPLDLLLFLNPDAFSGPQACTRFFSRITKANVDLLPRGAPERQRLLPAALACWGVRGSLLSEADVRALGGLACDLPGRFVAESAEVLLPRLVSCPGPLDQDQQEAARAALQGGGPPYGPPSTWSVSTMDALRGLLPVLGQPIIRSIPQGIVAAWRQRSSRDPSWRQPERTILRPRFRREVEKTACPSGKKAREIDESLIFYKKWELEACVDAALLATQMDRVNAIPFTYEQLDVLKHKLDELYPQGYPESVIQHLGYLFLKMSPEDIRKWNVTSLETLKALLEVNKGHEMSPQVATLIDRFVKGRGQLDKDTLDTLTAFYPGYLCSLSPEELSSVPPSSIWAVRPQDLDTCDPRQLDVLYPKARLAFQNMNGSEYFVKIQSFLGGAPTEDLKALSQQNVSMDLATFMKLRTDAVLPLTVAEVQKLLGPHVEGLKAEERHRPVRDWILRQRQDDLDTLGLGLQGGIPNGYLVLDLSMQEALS", "assay": "FACS, OVCAR-3 cells", "units": {"EC50": "nM"}, "values": [
      {"binder": "MOR06631 IgG (antibody, V domains shown) VH: QVQLVQSGAEVKKPGESLKISCKGSGYSFTNYWIGWVRQMPGKGLEWMGFIWPVDSWTQYSPSFQGQVTISADKSISTAYLQWSSLKASDTAMYYCARYGHGMYGGALDVWGQGTLVTVSS VL: DIVLTQSPATLSLSPGERATLSCRASQSVRSSRLAWYQQKPGQAPRLLIYGASKRATGVPARFSGSGSGTDFTLTISSLEPEDFATYYCQQYYDFPPTFGQGTKVEIK", "EC50": 0.96},
      {"binder": "MOR06669 IgG (antibody, V domains shown) VH: QVQLVQSGAEVKKPGESLKISCKGSGYSFTNYWIGWVRQMPGKGLEWMGIIWPIDSFTQYSPSFQGQVTISADKSISTAYLQWSSLKASDTAMYYCARYGHGMYGGALDVWGQGTLVTVSS VL: DIVLTQSPATLSLSPGERATLSCRASQSVRSSRLAWYQQKPGQAPRLLIYGASKRATGVPARFSGSGSGTDFTLTISSLEPEDFATYYCQQYYDFPPTFGQGTKVEIK", "EC50": 1.4},
      {"binder": "MOR07111 IgG (antibody, V domains shown) VH: QVQLVQSGAEVKKPGESLKISCKGSGYSFTNYWIGWVRQMPGKGLEWMGVIMPSDSYTRYSPSFQGQVTISADKSISTAYLQWSSLKASDTAMYYCARYGHGMYGGALDVWGQGTLVTVSS VL: DIVLTQSPATLSLSPGERATLSCRASQSVRSSRLAWYQQKPGQAPRLLIYGASKRATGVPARFSGSGSGTDFTLTISSLEPEDFAVYYCQQFYSKPITFGQGTKVEIK", "EC50": 1.35},
      {"binder": "MOR07265 IgG (antibody, V domains shown) VH: QVQLVQSGAEVKKPGESLKISCKGSGYSFTNYWIGWVRQMPGKGLEWMGFIWPVDSWTQYSPSFQGQVTISADKSISTAYLQWSSLKASDTAMYYCARYGHGMYGGALDVWGQGTLVTVSS VL: not shown", "EC50": 1.06},
      {"binder": "MOR06642 IgG (antibody, V domains shown) VH: QVQLVQSGAEVKKPGESLKISCKGSGYSFTNYWIGWVRQMPGKGLEWMGVIMPSDSYTRYSPSFQGQVTISADKSISTAYLQWSSLKASDTAMYYCARYGHGMYGGALDVWGQGTLVTVSS VL: not shown", "EC50": 0.54},
      {"binder": "MOR06643 IgG (antibody, V domains shown) VH: QVQLVESGGGLVQPGGSLRLSCAASGFTFSDYAMSWVRQAPGKGLEWVSAIMYDSSSTFYADSVKGRFTISRDNSKNTLYLQMNSLRAEDTAVYYCARINYIYKGVHFDYWGQGTLVTVSS VL: not shown", "EC50": 1.86},
      {"binder": "MOR06638 IgG (antibody, V domains shown) VH: QVQLVQSGAEVKKPGASVKVSCKASGYTFTGNYINWVRQAPGQGLEWMGIINPHGGDTKYAQKFQGRVTMTRDTSISTAYMELSSLRSEDTAVYYCARWHHGTWIFDYWGQGTLVTVSS VL: DIVLTQPPSVSGAPGQRVTISCSGSSSNIGSNYVSWYQQLPGTAPKLLIYNDNQRPSGVPDRFSGSKSGTSASLAITGLQSEDEADYYCSSWDRADGSYVFGGGTKLTVL", "EC50": 4.19}
    ]}
  ]
}
